Experimental data as given in the supplement of paper PMC10567573.

B1: CCND1 (parent)
chain: IRRAYPDANLLNDRVLRAMLKAEE

Variants of: B1
Test: protein stability index of a GFP-peptide fusion (GPS, HEK-293T) (PSI 1-6); higher = more stable
Conditions: c terminus: a fixed tail appended
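Also: lentivirally expressed fusions sorted by FACS into six bins by GFP to DsRed ratio, PSI derived from sequencing read proportions per bin multiplied by bin number.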

In order of falling protein stability index:
1. IRRAYPDANLLNDRVLRAMPKAEE  4.68
2. IRRAYPDANLLNDRVLRAMEKAEE  4.09
3. IRRAYPDANLLNDRVLRAMDKAEE  4.05
4. IRRAYPDANLLNDRVLRAMGKAEE  4.01
5. IRRAYPDANLLNDRVLRQMLKAEE  3.94
6. IRRAYPDANLLNDRVLRAMLPAEE  3.85
7. IRRAYPDANLLNDRVLRAMLKPEE  3.69
8. IRRAYPDANLLNDRVLRAMSKAEE  3.69
9. IRRAYPDANLLNDRVLRSMLKAEE  3.66
10. IRRAYPDANLLNDRVLRTMLKAEE  3.58
11. IRRAYPDANLLNDRVLRAMLKAEA  3.57
12. IRRAYPDANLLNDRVLRAMIKAEE  3.55
13. IRRAYPDANLLNDRVLRAMNKAEE  3.45
14. IRRAYPDANLLNDRVLRAMLKALE  3.39
15. IRRAYPDANLLNDRVLRAMLCAEE  3.33
16. IRRAYPDANLLNDRVLRAMLTAEE  3.33
17. IRRAYPDANLLNDRVLRAMAKAEE  3.3
18. IRRAYPDANLLNDRVLRAMLKAES  3.28
19. IRRAYPDANLLNDRVLRAMLKKEE  3.27
20. IRRAYPDANLLNDRVLRAMKKAEE  3.25
21. IRRAYPDANLLNDRVLRRMLKAEE  3.23
22. IRRAYPDANLLNDRVLRAMLKAQE  3.18
23. IRRAYPDANLLNDRVLRAMTKAEE  3.12
24. IRRAYPDANLLNDRVLRAMLKEEE  3.08
25. IRRAYPDANLLNDRVLRNMLKAEE  3.06
26. IRRAYPDANLLNDRVLRAMLNAEE  3.04
27. IRRAYPDANLLNDRVLRAMRKAEE  3.03
28. IRRAYPDANLLNDRVLRAMLLAEE  3.01
29. IRRAYPDANLLNDRVLRAMLKAEI  3
30. IRRAYPDANLLNDRVLRAMLVAEE  2.93
31. IRRAYPDANLLNDRVLRAMYKAEE  2.9
32. IRRAYPDANLLNDRVLRAMMKAEE  2.87
33. IRRAYPDANLLNDRVLRAMLKNEE  2.86
34. IRRAYPDANLLNDRVLRAMLKHEE  2.8
35. IRRAYPDANLLNDRVLRAMLKTEE  2.8
36. IRRAYPDANLLNDRVLRAMLRAEE  2.79
37. IRRAYPDANLLNDRVLRAMLKAKE  2.75
38. IRRAYPDANLLNDRVLRAMLKWEE  2.74
39. IRRAYPDANLLNDRVLRAMLKDEE  2.73
40. IRRAYPDANLLNDRVLRAMLEAEE  2.73
41. IRRAYPDANLLNDRVLRAMLSAEE  2.72
42. IRRAYPDANLLNDRVLRAMLKAEN  2.7
43. IRRAYPDANLLNDRVLRAMLKAED  2.67
44. IRRAYPDANLLNDRVLRAMLKQEE  2.64
45. IRRAYPDANLLNDRVLRAMFKAEE  2.63
46. IRRAYPDANLLNDRVLRAMLKATE  2.61
47. IRRAYPDANLLNDRVLRAMQKAEE  2.58
48. IRRAYPDANLLNDRVLRAMLHAEE  2.56
49. IRRAYPDANLLNDRVLRAMHKAEE  2.55
50. IRRAYPDANLLNDRVLRAMLGAEE  2.52
51. IRRAYPDANLLNDRVLRAMLKAYE  2.45
52. IRRAYPDANLLNDRVLRAMLKYEE  2.43
53. IRRAYPDANLLNDRVLRAMLKADE  2.42
54. IRRAYPDANLLNDRVLRAMLKMEE  2.41
55. IRRAYPDANLLNDRVLRAMLKAEP  2.39
56. IRRAYPDANLLNDRVLRAMLIAEE  2.38
57. IRRAYPDANLLNDRVLRAMLKSEE  2.37
58. IRRAYPDANLLNDRVLRAMLKARE  2.37
59. IRRAYPDANLLNDRVLRAMLAAEE  2.35
60. IRRAYPDANLLNDRVLRAMLKAET  2.33
61. IRRAYPDANLLNDRVLRAMWKAEE  2.32
62. IRRAYPDANLLNDRVLRAMLKREE  2.3
63. IRRAYPDANLLNDRVLRWMLKAEE  2.3
64. IRRAYPDANLLNDRVLRAMLKASE  2.3
65. IRRAYPDANLLNDRVLRAMLKAME  2.3
66. IRRAYPDANLLNDRVLRPMLKAEE  2.29
67. IRRAYPDANLLNDRVLRAMLKVEE  2.21
68. IRRAYPDANLLNDRVLRAMLKANE  2.18
69. IRRAYPDANLLNDRVLRAMLKIEE  2.1
70. IRRAYPDANLLNDRVLRAMLKAEC  2.08
71. IRRAYPDANLLNDRVLRAMLKAEK  2.05
72. IRRAYPDANLLNDRVLRAMLKAEH  2.04
73. IRRAYPDANLLNDRVLRAMLKAER  2.02
74. IRRAYPDANLLNDRVLRAMLKFEE  1.92
75. IRRAYPDANLLNDRVLRAMLKACE  1.92
76. IRRAYPDANLLNDRVLRAMLQAEE  1.89
77. IRRAYPDANLLNDRVLRAMLKAAE  1.87
78. IRRAYPDANLLNDRVLRAMLKAEM  1.87
79. IRRAYPDANLLNDRVLRAMLKAWE  1.84
80. IRRAYPDANLLNDRVLRAMLWAEE  1.83
81. IRRAYPDANLLNDRVLRMMLKAEE  1.8
82. IRRAYPDANLLNDRVLRAMLKAVE  1.8
83. IRRAYPDANLLNDRVLRAMLKAEL  1.8
84. IRRAYPDANLLNDRVLRAMLKLEE  1.78
85. IRRAYPDANLLNDRVLRAMLMAEE  1.76
86. IRRAYPDANLLNDRVLRAMLKAHE  1.62
87. IRRAYPDANLLNDRVLRAMLKAFE  1.62
88. IRRAYPDANLLNDRVLRAMLKAEF  1.55
89. IRRAYPDANLLNDRVLRAMLKAEW  1.52
90. IRRAYPDANLLNDRVLRAMLFAEE  1.47
91. IRRAYPDANLLNDRVLRAMLKAEY  1.35
92. IRRAYPDANLLNDRVLRLMLKAEE  1.31
93. IRRAYPDANLLNDRVLRAMLKAEV  1.23
94. IRRAYPDANLLNDRVLRAMLKAIE  1.21
